Data taken from US20230048633A1.

Biological target: recombinant HLA-E-His protein (human) (UniProt P13747)
Experiment: ELISA: the chimeric protein itself was coated in a 1:3 titration (the x axis is its coating concentration), HLA-E-His (Novus NBP2-47435PEP) was added, detected with Anti-6x-His-HRP (Abcam Ab1187)

Substance	EC50 (read off the curve) [µg/mL]
hSLAMF6-Fc-NKG2A chimeric protein (from UniProt Q96DU3 22-226; P26715 94-233) (Fc fusion)	6
hTGFBR2-Fc-NKG2A chimeric protein (Fc fusion)	5
